As usually defined, the Kd is the equilibrium constant for the complex coming apart. Read a high Kd as lower affinity.

This passage reports Kd results from PMC3856478 (2013).

This assay deals with T1, Colicin E9 OBS1 peptide 2-18 (Escherichia coli, UniProt P09883).
T1 chain: SGGDGRGHNTGAHSTSG
The assay can be described thus: ITC. In general terms: Isothermal titration calorimetry measures the heat released or taken up as one component is titrated into another.

B1: OmpF (protein)
chain: AEIYNKDGNKVDLYGKAVGLHYFSKGNGENSYGGNGDMTYARLGFKGETQINSDLTGYGQWEYNFQGNNSEGADAQTGNKTRLAFAGLKYADVGSFDYGRNYGVVYDALGYTDMLPEFGGDTAYSDDFFVGRVGGVATYRNSNFFGLVDGLNFAVQYLGKNERDTARRSNGDGVGGSISYEYEGFGIVGAYGAADRTNLQEAQPLGNGKKAEQWATGLKYDANNIYLAANYGETRNATPITNKFTNTSGFANKTQDVLLVAQYQFDFGLRPSIAYTKSKAKDVEGIGDVDLVNYFEVGATYYFNKNMSTYVDYIINQIDSDNKLGVGSDDTVAVGIVYQF
In the case of B1, the Kd is ~1000 nM.
